Results from US20150150157A1, “PREPHENATE DEHYDROGENASES AND AROGENATE DEHYDROGENASES THAT ARE INSENSITIVE TO EFFECTOR FEEDBACK INHIBITION AND METHODS OF USING THE SAME” (Wisconsin Alumni Research Foundation, priority 2013, published 2015).

Tests used:
Format in all cases: biochemical
[1] = test system: CM activity in the plastid fraction; assay: CM activity in plastidic fraction of soybean leaf with and without effector; conditions: 1 mM effector
Experimental: (§1) CM activity from crude plant extracts and from cytosolic and plastidic fractions (FIG. 4I) was determined in the presence and absence of 1 mM L-Tyr or L-Trp (FIG. 4I) by detecting phenylpyruvate formation using the same HPLC method for HPLA detection (see above). Assays were set up as described above but were incubated for 60 min at 37° C. before addition of 1 N HCl. Phenylpyruvate was detected by UV absorbance at 270 nm and quantified by comparison to the authentic phenylpyruvate standard (Sigma-Aldrich).
(§2) Ten grams of 4-week-old soybean leaves were harvested at the end of the night to deplete starch. The fresh tissues were homogenized using a Polytron (Brinkmann, Westhury, N.Y.) in 10 ml of the plastid isolation buffer (0.5 M sorbitol, 20 mM HEPES (pH 7.4), 10 mM KCl, 1 mM MgCl2, 1 mM EDTA, 5 mM DTT and 1% BSA) (Kong and Rawsthorne. Plant J, 6: 795-805 (1994)). The homogenate was filtered through two layers of micracloth. The residual homogenate left on the micracloth was homogenized again in 10 ml of the isolation buffer and passed through two layers of micracloth, which was repeated once more to yield ˜30 ml of homogenate. The combined homogenate was centrifuged at 2,500 g for 5 min. The pellet was washed twice with the isolation buffer, resuspended in 4 ml of lysis buffer (25 mM HEPES (pH 7.5), 50 mM KCl) and left on ice for 20 min to rapture the plastids. […]

[2] = test system: CM activity in the cytosol; assay: CM activity in cytosolic fraction of soybean leaf with and without effector; conditions: 1 mM effector
Experimental: as §1, §2

[3] = Inhibition analysis: L-Tyr sensitivity of PDH activity, crude E. coli extract expressing Glyma11g35760; conditions: for PDH activity: crude E. coli extract
Experimental: For recombinant protein expression, the cloned pFT28a vectors were introduced into Rosetta-2 E. coli competent cells (Novagen) and cultured overnight at 37° C., 200 r.p.m. in 10 ml LB medium containing kanamycin (100 μg/ml) and chloramphenicol (100 μg/ml). Two milliliters of the overnight culture were transferred to 50 ml LB medium with the same antibiotics and further incubated at 37° C. and 200 r.p.m. until the OD600 reached 0.3. The temperature was then changed to 18° C. and, after 1 h, isopropyl β-D-I-thiogalactopyranoside (IPTG, […] final concentration) was added to induce recombinant protein expression. After overnight incubation at 18° C. under constant shaking at 200 r.p.m, cultures were harvested by centrifugation at 2,000 g for 30 min at 4° C. and the pellet was resuspended in an appropriate volume of lysis buffer (25 mM HEPES, pH 7, 50 mM KCl, 10% ethylene glycol, 1 mM phenylmethylsulfortyl fluoride (PMSF) and 1 mM DTT) calculated on the basis of the formula (OD600×ml volume of culture)/30. The resuspended pellet was sonicated three times for 15 s. The cell lysate was centrifuged at 16,000 g for 10 min at 4° C. and the supernatant was applied to a column containing 500 μl PerfectPro Ni-NTA resin (5 PRIME, Hamburg, Germany). The column was washed with ten times the bed volume of wash buffer 1 (50 mM sodium phosphate buffer, pH 8.0, 300 mM NaCl, 20 mM imidazole) followed by ten times the bed volume of wash buffer II (50 mM sodium phosphate buffer, pH 8.0, 300 mM NaCl, 40 mM imidazole) and then wash buffer III (50 mM sodium phosphate buffer, pH 8.0, 300 mM NaCl, 60 mM imidazole). The recombinant enzymes containing an N-terminal His6 tag were eluted from the resin with 1 ml of elution buffer (50 mM sodium phosphate buffer, pH. 8.0, 300 mM NaCl, 500 mM imidazole) and desalted as described above. The purity of the purified recombinant enzymes was estimated by running on SDS-PAGE gel (FIG. 12) and analyzing with ImageJ (http://imagej.nih.gov/ij/). The recombinant enzyme of Glyma11g35760 was tested for Tyr sensitivity (FIG. 5A) using crude E. coli extract as its purification was not successful owing to its low expression (FIG. 3B and FIG. 3C) and insolubility.
(§3) ADH and PDH reactions using GmPDH1, Glyma11g35760, MtPDH1 and AtADH2 (FIG. 5A) contained 200 mM HEPES (pH 7.3), 50 mM KCl, 10% ethylene glycol, 1 mN4 NADP^+ and 1 mM substrate (L-arogenate or prephenate, respectively). Reactions were started by addition of enzyme and incubated at 37° C. for 15 min in the presence of increasing concentrations of effectors: L-Tyr FIG. 5A), L-Phe, L-Trp and HPP. Tyr was dissolved in basic conditions (0.025 N NaOH) to dissolve at high concentrations (up to 10 mM), though 200 mM HEPES maintained the final reaction pH at 7.6. Tyr sensitivity of purified recombinant GmPDH1 and MtPDH1 was also tested at prephenate concentrations ranging from […] to 59 μM, below the K values for GmPDH1 and MtPDH1, while keeping the L-Tyr concentration constant at 1 mM (FIG. 13). Enzyme activity was measured for the production of reduced cofactor (NADPH) at 340 nm using a spectrophotometer, except for crude soybean extracts, which were analyzed by HPLC after 45 min incubation and reduction to HPLA as described above.

[4] = Qualitative HPLC detection of PDH activity in E. coli cell lysates expressing candidate enzymes; conditions: 2 mM prephenate, saturating conditions
Experimental: ADH and PDH reactions contained 25 mM HEPES (pH 7.5), 50 mM KCl, 10% ethylene glycol, 1 mM NADP (or NAD^+), 2 mM substrate (L-arogenate or prephenate, respectively) unless otherwise noted. Arogenate was prepared by enzymatic conversion from prephenate (Sigma-Aldrich), as previously reported. Reactions were started by addition of enzyme from various sources and incubated at 37′ C. for a given amount of time, as noted below,
HPLC-based methods were used to directly detect the final products of ADH and PDH assays, Tyr and HPP, respectively from crude E. coli extracts (FIG. 3B and FIG. 3C) and crude plant extracts (FIG. 2A and FIG. 6). For HPLC detection of PDH activity, reactions were incubated for 45 min and terminated by addition of NaBH4, which converts the reaction product HPP (which produced multiple peaks; FIG. 6) into hydroxyphenyllactic acid (HPLA), followed by neutralization with 100 μl of 6 N HCl. The conversion and recovery rate was 80±1.5% s.d. which was taken into account for the calculation of specific activity from crude plant extracts (FIG. 2C). HPLA was detected as a single peak (FIG. 2A) after being separated by HPLC (Agilent 1260, Santa Clara, Calif.) equipped with a ZORBA X SB-C18 column (Agitent) using a 6-min isocratic elution at 25% methanol in 0.1% phosphoric acid, followed by a 20-min linear gradient of 25-60% methanol at a flow rate of 1.0 ml/min. HPLA was detected using UV absorbance at 270 nm and quantified by a calibration curve generated from the authentic HPLA standard (Sigma-Aldrich). For HPLC-based detection of ADH activity (FIG. 3B), reactions were incubated for 45 min and terminated by addition of methanol to a final concentration of 66% (v/v). The product, Tyr, was derivatized with OPA and separated on a ZORBAX eclipse-XDB C18 column (Agilent) using a 30-min linear gradient of 20-45% methanol in 0.1% animonium acetate at a flow rate of 0.8 ml/min. Tyr was detected by UV absorption at 336 nm and quantified on the basis of a calibration curve generated by the authentic Tyr standard (Acros, Geel, Belgium).
The crude enzyme extracts were first subjected to PDH and ADH assays using saturating conditions to screen for any detectable PDH and/or ADH activity (FIG. 3B and FIG. 3C). ADH activity was detected from all five candidates. In contrast, PDH activity was detected only in Glyma11a35760 and Glyma18g02650 as well as their closest homolog from Medicago (Mt3g071980) but not in Glyma5g07870, Glyma17g13150 and Glyma14g05990 (FIG. 3C).

[5] = Inhibition analysis: L-Tyr sensitivity of ADH activity of recombinant AtADH2; conditions: for ADH activity: 1 mM L-arogenate, 1 mM NADP+, 37° C., 15 min
Experimental: as §3

N[C@@H](Cc1c[nH]c2ccccc12)C(=O)O [L-Trp, tryptophan]
induction of CM activity in the plastid fraction [1]: approximately threefold | CM activity in the cytosol [2]: increased

N[C@@H](Cc1ccc(O)cc1)C(=O)O [L-Tyr, Tyrosine]
CM activity in the plastid fraction [1]: completely inhibited | CM activity in the cytosol [2]: only slightly decreased

B1: Glyma11g35760: soybean PDH enzyme, paralog of Glyma18g02650, tested as crude E. coli extract (protein)
chain: MTTMSTSSSSQSLKIGIVGFGNFGQFLAKTMIKQGHTLTATSRSDYSQLCLQMGIHFFRDVSAFLAADIDVIVLCTSILSLSEVVGSMPLTSLKRPTLFVDVLSVKEHPRELLLRELPEDSDILCTHPMFGPQTANNGWTDHTFMYDKVRIRDEATCSSFIQIFATEGCKMVQMSCEEHDRAAAKSQFITHTIGRTLGEMDIQSTPIDTKGFETLVKLKETMMRNSFDLYSGLFVYNRFARQELENLEHAFYKVKETLMIQRSNGEQGHKRTES
modifications: Glycine max
notes: soybean PDH enzyme, paralog of Glyma18g02650, tested as crude E. coli extract
inhibition of PDH activity by L-Tyr ([3]; E. coli extract expressing the enzyme): not inhibited | PDH activity ([3]; L-Tyr 0 mM): 1219 ± 76 pKat/mg | PDH activity ([3]; L-Tyr 0.01 mM): 1211 ± 39 pKat/mg | PDH activity ([3]; L-Tyr 0.1 mM): 1173 ± 16 pKat/mg | PDH activity ([3]; L-Tyr 1.0 mM): 1250 ± 63 pKat/mg | PDH activity ([3]; L-Tyr 10 mM): 1109 ± 79 pKat/mg | PDH activity (qualitative detection) [4]: detected

B2: AtADH2: Arabidopsis thaliana arogenate dehydrogenase 2, recombinant enzyme, inhibited by L-Tyr (protein, UniProt Q9LMR3 37-358, looked up)
Arogenate dehydrogenase 2, …: IDAAQIFDYETQLKSEYRKSSALKIAVLGFGNFGQFLSKTLIRHGHDLITHSRSDYSDAANSIGARFFDNPHDLCEQHPDVVLLCTSILSTESVLRSFPFQRLRRSTLFVDVLSVKEFPKALFIKYLPKEFDILCTHPMFGPESGKHSWSGLPFVYDKVRIGDAASRQERCEKFLRIFENEGCKMVEMSCEKHDYYAAGSQFVTHTMGRVLEKYGVESSPINTKGYETLLDLVENTSSDSFELFYGLFMYNPNALEQLERLDMAFESVKKELFGRLHQQYRKQMFGGEVQSPKKTEQKLLNDGGVVPMNDISSSSSSSSSSS
reduction of ADH activity ([5]; 100 μM L-Tyr): ~75% | ADH activity ([5]; L-Tyr 0 mM): 923 ± 34 uKat/mg | ADH activity ([5]; L-Tyr 0.01 mM): 766 ± 35 uKat/mg | ADH activity ([5]; L-Tyr 0.1 mM): 251 ± 45 uKat/mg | ADH activity in the presence of L-Tyr ([5]; ≧1 mM L-Tyr): abolished

B3: Glyma14g05990: soybean enzyme having predominately arogenate dehydrogenase activity (protein)
chain: MSTWSLKIGVVGFGSFGQFLAKTMIKQGHTLRATSRTDYSLLCLPMGIQFFRDVAAFLEADNDVILVCTSILSLSEVLSSMPLTCLKRSTLFVDVLSVKEHPRNLLIKVLPEESDILCTHPMFGPDSGKDGWQDLTFVYDKVRIRDEAICSSFLHIFASEGCRMLQMSCEEHDKIAAKSQFITHTIGRTLAEMDIKSTPIDTKGFHSLVQLKDTTIRDSFDLYSGLFLHNRFAVQELENLEHALHKVKEMLVQRKSEELGLEKTEC
modifications: Glycine max
PDH activity (qualitative detection) [4]: not
